# Laboratory results reported in US20250136721A1 (GlaxoSmithKline, published 2025).
# T1: Recombinant human TNFR1-Fc (human, UniProt P19438 30-211, limits assumed)
# T1 construct: bought reagent; also called hTNFR1:Fc; not shown: Fc part; not described
# T1 sequence (looked up): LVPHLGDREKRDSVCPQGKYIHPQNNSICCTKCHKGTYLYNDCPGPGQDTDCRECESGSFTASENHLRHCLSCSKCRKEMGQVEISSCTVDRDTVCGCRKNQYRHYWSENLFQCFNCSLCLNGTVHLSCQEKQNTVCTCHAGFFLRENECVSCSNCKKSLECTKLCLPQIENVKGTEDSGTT
# What was measured:
# [1] = molecular target: pre-existing anti-VH ADA in human serum; experiment: ADA confirmation assay (MSD) described previously, mean of 10 donor sera
# [2] = molecular target: pre-existing anti-VH ADA in human serum; experiment: ADA confirmation assay (MSD): 10 ug/mL test material against labelled DOM1H-131-206; share of 10 ADA-positive sera with binding
# [3] = molecular target: T1, Recombinant human TNFR1-Fc; experiment: ELISA: dAb on coated recombinant human TNFR1-Fc, anti-Vh detection
# [4] = molecular target: pre-existing anti-VH ADA in human serum; experiment: ADA confirmation assay (MSD): 10 ug/mL test material against labelled DOM1H-131-206, mean of 10 sera
% inhibition in confirmation assay [1],% subjects with ADA binding (10 subjects) (% of subjects) [2],EC50 [3],Mean % inhibition of signal in confirmation assay [4],Binder
14.8%,,,,DOM10H-53-567 C-terminal AS (protein) VH: GVQLLESGGGLVQPGGSLRLSCAASGFVFAWYDMGWVRQAPGKGLEWVSSIDWHGEVTYYADSVKGRFTISRDNSKNTLYLQMNSLRAEDTAVYYCATAEDEPGYDYWGQGTLVTVSSAS
29%,,,,DOM10H-53-567 C-terminal AST (protein) VH: GVQLLESGGGLVQPGGSLRLSCAASGFVFAWYDMGWVRQAPGKGLEWVSSIDWHGEVTYYADSVKGRFTISRDNSKNTLYLQMNSLRAEDTAVYYCATAEDEPGYDYWGQGTLVTVSSAST
12.8%,,,,DOM10H-53-567 C-terminal A (protein) VH: GVQLLESGGGLVQPGGSLRLSCAASGFVFAWYDMGWVRQAPGKGLEWVSSIDWHGEVTYYADSVKGRFTISRDNSKNTLYLQMNSLRAEDTAVYYCATAEDEPGYDYWGQGTLVTVSSA
,100,960 pM,99.4%,"DOM1H-131-206 H91S (other, name in Kabat numbering, VH dAb variant) VH: EVQLLESGGGLVQPGGSLRLSCAASGFTFAHETMVWVRQAPGKGLEWVSHIPPDGQDPFYADSVKGRFTISRDNSKNTLYLQMNSLRAEDTAVYSCALLPKRGPWFDYWGQGTLVTVSS"
,100,2030 pM,61.6%,"DOM1H-131-206 P14A, G44E (other, name in Kabat numbering, VH dAb variant) VH: EVQLLESGGGLVQAGGSLRLSCAASGFTFAHETMVWVRQAPGKELEWVSHIPPDGQDPFYADSVKGRFTISRDNSKNTLYLQMNSLRAEDTAVYHCALLPKRGPWFDYWGQGTLVTVSS"
,100,760 pM,99.3%,"DOM1H-131-206 R83A (other, name in Kabat numbering, VH dAb variant) VH: EVQLLESGGGLVQPGGSLRLSCAASGFTFAHETMVWVRQAPGKGLEWVSHIPPDGQDPFYADSVKGRFTISRDNSKNTLYLQMNSLAAEDTAVYHCALLPKRGPWFDYWGQGTLVTVSS"
,100,670 pM,99.5%,"DOM1H-131-206 K43A (other, name in Kabat numbering, VH dAb variant) VH: EVQLLESGGGLVQPGGSLRLSCAASGFTFAHETMVWVRQAPGAGLEWVSHIPPDGQDPFYADSVKGRFTISRDNSKNTLYLQMNSLRAEDTAVYHCALLPKRGPWFDYWGQGTLVTVSS"
,100,590 pM,87.3%,"DOM1H-131-206 P41A (other, name in Kabat numbering, VH dAb variant) VH: EVQLLESGGGLVQPGGSLRLSCAASGFTFAHETMVWVRQAAGKGLEWVSHIPPDGQDPFYADSVKGRFTISRDNSKNTLYLQMNSLRAEDTAVYHCALLPKRGPWFDYWGQGTLVTVSS"
,60,750 pM,50.2%,"DOM1H-131-206 P14A, H91S (other, name in Kabat numbering, VH dAb variant) VH: EVQLLESGGGLVQAGGSLRLSCAASGFTFAHETMVWVRQAPGKGLEWVSHIPPDGQDPFYADSVKGRFTISRDNSKNTLYLQMNSLRAEDTAVYSCALLPKRGPWFDYWGQGTLVTVSS"
95.1%,,,,DOM10H-53-567 (protein) VH: GVQLLESGGGLVQPGGSLRLSCAASGFVFAWYDMGWVRQAPGKGLEWVSSIDWHGEVTYYADSVKGRFTISRDNSKNTLYLQMNSLRAEDTAVYYCATAEDEPGYDYWGQGTLVTVSS
27.7%,,,,DOM10H-53-567 C-terminal ASTK (protein) VH: GVQLLESGGGLVQPGGSLRLSCAASGFVFAWYDMGWVRQAPGKGLEWVSSIDWHGEVTYYADSVKGRFTISRDNSKNTLYLQMNSLRAEDTAVYYCATAEDEPGYDYWGQGTLVTVSSASTK
